The supplement of paper PMC11246515
± gives the standard deviation of the averaged measurements.

Experiment: total protein half-life in vivo (active degradation + dilution); higher = more stable protein
[1] = E. coli NCM3722 delta-clpP delta-lon delta-hslV, growth: N-lim chemostat, doubling time 6 h
[2] = E. coli NCM3722 delta-clpP, growth: N-lim chemostat, doubling time 6 h
[3] = E. coli NCM3722 delta-hslV, growth: N-lim chemostat, doubling time 6 h
[4] = E. coli NCM3722 delta-lon, growth: N-lim chemostat, doubling time 6 h
[5] = E. coli NCM3722 delta-smpB, growth: N-lim chemostat, doubling time 6 h
[6] = wild type E. coli NCM3722, growth: C-lim chemostat, doubling time 3 h
[7] = wild type E. coli NCM3722, growth: C-lim chemostat, doubling time 6 h
[8] = wild type E. coli NCM3722, growth: C-lim chemostat, doubling time 12 h
[9] = wild type E. coli NCM3722, growth: N-lim chemostat, doubling time 6 h
[10] = wild type E. coli NCM3722, growth: N-lim chemostat, doubling time 12 h
[11] = wild type E. coli NCM3722, growth: P-lim chemostat, doubling time 6 h
[12] = wild type E. coli NCM3722, growth: P-lim chemostat, doubling time 12 h

For “MVNLVIVSHSSRLGEGVGELARQMLMSDSCKIAIAAGIDDPQNPIGTDAVKVMEAIESVADADHVLVMMDMGSALLSAETALELLAPEIAAKVRLCAAPLVEGTLAATVSAASGADIDKVIFDAMHALEAKREQLGLPSSDTEISDTCPAYDEEARSLAVVIKNRNGLHVRPASRLVYTLSTFNADMLLEKNGKCVTPESINQIALLQVRYNDTLRLIAKGPEAEEALIAFRQLAEDNFGETEEVAPPTLRPVPPVSGKAFYYQPVLCTVQAKSTLTVEEEQDRLRQAIDFTLLDLMTLTAKAEASGLDDIAAIFSGHHTLLDDPELLAAASELLQHEHCTAEYAWQQVLKELSQQYQQLDDEYLQARYIDVDDLLHRTLVHLTQTKEELPQFNSPTILLAENIYPSTVLQLDPAVVKGICLSAGSPVSHSALIARELGIGWICQQGEKLYAIQPEETLTLDVKTQRFNRQG”, the “total protein half-life in vivo” value [1] was 5.07 ± 0.8 h, the “total protein half-life in vivo” value [2] was 5.24 ± 0.96 h and the “total protein half-life in vivo” value [3] was 4.67 ± 0.96 h. The “total protein half-life in vivo” value [4] was 4.07 ± 0.32 h, the “total protein half-life in vivo” value [5] was 3.51 ± 0.52 h and the “total protein half-life in vivo” value [6] was 3.39 ± 0.48 h. The “total protein half-life in vivo” value [7] was 6.02 ± 0.54 h, the “total protein half-life in vivo” value [8] was 10 ± 0.98 h and the “total protein half-life in vivo” value [9] was 4.01 ± 0.29 h. For the same sequence, the “total protein half-life in vivo” value [10] was 6.3 ± 0.85 h, the “total protein half-life in vivo” value [11] was 5.33 ± 0.27 h and the “total protein half-life in vivo” value [12] was 11.4 ± 1.5 h.

For “MVPSTFSRLKAARCLPVVLAALIFAGCGTHTPDQSTAYMQGTAQADSAFYLQQMQQSSDDTRINWQLLAIRALVKEGKTGQAVELFNQLPQELNDAQRREKTLLAVEIKLAQKDFAGAQNLLAKITPADLEQNQQARYWQAKIDASQGRPSIDLLRALIAQEPLLGAKEKQQNIDATWQALSSMTQEQANTLVINADENILQGWLDLQRVWFDNRNDPDMMKAGIADWQKRYPNNPGAKMLPTQLVNVKAFKPASTNKIALLLPLNGQAAVFGRTIQQGFEAAKNIGTQPVAAQVAAAPAADVAEQPQPQTVDGVASPAQASVSDLTGEQPAAQPVPVSAPATSTAAVSAPANPSAELKIYDTSSQPLSQILSQVQQDGASIVVGPLLKNNVEELLKSNTPLNVLALNQPENIENRVNICYFALSPEDEARDAARHIRDQGKQAPLVLIPRSSLGDRVANAFAQEWQKLGGGTVLQQKFGSTSELRAGVNGGSGIALTGSPITLRATTDSGMTTNNPTLQTTPTDDQFTNNGGRVDAVYIVATPGEIAFIKPMIAMRNGSQSGATLYASSRSAQGTAGPDFRLEMEGLQYSEIPMLAGGNLPLMQQALSAVNNDYSLARMYAMGVDAWSLANHFSQMRQVQGFEINGNTGSLTANPDCVINRNLSWLQYQQGQVVPVS”, the “total protein half-life in vivo” value [1] was 5.639 ± 0.023 h, the “total protein half-life in vivo” value [2] was 5.812 ± 0.034 h and the “total protein half-life in vivo” value [3] was 5.89 ± 0.37 h. For the same sequence, the “total protein half-life in vivo” value [4] was 6.49 ± 0.16 h, the “total protein half-life in vivo” value [5] was 6.45 ± 0.83 h and the “total protein half-life in vivo” value [6] was 3.11 ± 0.16 h. The “total protein half-life in vivo” value [7] was 5.614 ± 0.025 h, the “total protein half-life in vivo” value [8] was 11.2 ± 1 h and the “total protein half-life in vivo” value [9] was 6.03 ± 0.11 h. The “total protein half-life in vivo” value [10] was 13.1 ± 1.8 h, the “total protein half-life in vivo” value [11] was 5.91 ± 0.45 h and the “total protein half-life in vivo” value [12] was 11.5 ± 0.52 h.

With “MVQRITIAPQGPEFSRFVMGYWRLMDWNMSARQLVSFIEEHLDLGVTTVDHADIYGGYQCEAAFGEALKLAPHLRERMEIVSKCGIATTAREENVIGHYITDRDHIIKSAEQSLINLATDHLDLLLIHRPDPLMDADEVADAFKHLHQSGKVRHFGVSNFTPAQFALLQSRLPFTLATNQVEISPVHQPLLLDGTLDQLQQLRVRPMAWSCLGGGRLFNDDYFQPLRDELAVVAEELNAGSIEQVVYAWVLRLPSQPLPIIGSGKIERVRAAVEAETLKMTRQQWFRIRKAALGYDVP” the “total protein half-life in vivo” value [1] was 5.21 ± 0.14 h, the “total protein half-life in vivo” value [2] was 5.59 ± 0.96 h and the “total protein half-life in vivo” value [3] was 4.95 ± 0.13 h. For the same sequence, the “total protein half-life in vivo” value [4] was 5.07 ± 0.77 h, the “total protein half-life in vivo” value [5] was 4.67 ± 0.12 h and the “total protein half-life in vivo” value [6] was 2.86 ± 0.26 h. The “total protein half-life in vivo” value [7] was 5.71 ± 0.085 h, the “total protein half-life in vivo” value [8] was 9.47 ± 0.64 h and the “total protein half-life in vivo” value [9] was 5 ± 0.25 h. For the same sequence, the “total protein half-life in vivo” value [10] was 8.62 ± 0.69 h, the “total protein half-life in vivo” value [11] was 5.79 ± 0.17 h and the “total protein half-life in vivo” value [12] was 10.9 ± 0.49 h.

For “MVSLEKNDHLMLARQLPLKSVALILAGGRGTRLKDLTNKRAKPAVHFGGKFRIIDFALSNCINSGIRRMGVITQYQSHTLVQHIQRGWSFFNEEMNEFVDLLPAQQRMKGENWYRGTADAVTQNLDIIRRYKAEYVVILAGDHIYKQDYSRMLIDHVEKGARCTVACMPVPIEEASAFGVMAVDENDKIIEFVEKPANPPSMPNDPSKSLASMGIYVFDADYLYELLEEDDRDENSSHDFGKDLIPKITEAGLAYAHPFPLSCVQSDPDAEPYWRDVGTLEAYWKANLDLASVVPELDMYDRNWPIRTYNESLPPAKFVQDRSGSHGMTLNSLVSGGCVISGSVVVQSVLFSRVRVNSFCNIDSAVLLPEVWVGRSCRLRRCVIDRACVIPEGMVIGENAEEDARRFYRSEEGIVLVTREMLRKLGHKQER [P0A6V1]”, the “total protein half-life in vivo” value [1] was 6.16 ± 0.19 h, the “total protein half-life in vivo” value [3] was 6.42 ± 1 h and the “total protein half-life in vivo” value [4] was 5.94 ± 0.29 h. For the same sequence, the “total protein half-life in vivo” value [5] was 5.54 ± 0.52 h, the “total protein half-life in vivo” value [6] was 3.34 ± 0.11 h and the “total protein half-life in vivo” value [7] was 6.04 ± 0.72 h. The “total protein half-life in vivo” value [8] was 12.2 ± 0.15 h, the “total protein half-life in vivo” value [9] was 5.535 ± 0.042 h and the “total protein half-life in vivo” value [10] was 9.99 ± 0.24 h. The “total protein half-life in vivo” value [11] was 6.46 ± 0.65 h and the “total protein half-life in vivo” value [12] was 12.2 ± 0.32 h.

For “MVTHRQRYREKVSQMVSWGHWFALFNILLSLVIGSRYLFIADWPTTLAGRIYSYVSIIGHFSFLVFATYLLILFPLTFIVGSQRLMRFLSVILATAGMTLLLIDSEVFTRFHLHLNPIVWQLVINPDENEMARDWQLMFISVPVILLLELVFATWSWQKLRSLTRRRRFARPLAAFLFIAFIASHVVYIWADANFYRPITMQRANLPLSYPMTARRFLEKHGLLDAQEYQRRLIEQGNPDAVSVQYPLSELRYRDMGTGQNVLLITVDGLNYSRFEKQMPALAGFAEQNISFTRHMSSGNTTDNGIFGLFYGISPSYMDGILSTRTPAALITALNQQGYQLGLFSSDGFTSPLYRQALLSDFSMPSVRTQSDEQTATQWINWLGRYAQEDNRWFSWVSFNGTNIDDSNQQAFARKYSRAAGNVDDQINRVLNALRDSGKLDNTVVIITAGRGIPLSEEEETFDWSHGHLQVPLVIHWPGTPAQRINALTDHTDLMTTLMQRLLHVSTPASEYSQGQDLFNPQRRHYWVTAADNDTLAITTPKKTLVLNNNGKYRTYNLRGERVKDEKPQLSLLLQVLTDEKRFIAN [P0AD27]”, the “total protein half-life in vivo” value [1] was 6.51 ± 0.23 h, the “total protein half-life in vivo” value [4] was 5.92 ± 0.086 h and the “total protein half-life in vivo” value [5] was 6.0496 ± 0.0024 h. The “total protein half-life in vivo” value [6] was 3.37 ± 0.44 h, the “total protein half-life in vivo” value [7] was 5.62 ± 0.63 h and the “total protein half-life in vivo” value [8] was 12.8 ± 0.27 h. The “total protein half-life in vivo” value [9] was 6.18 ± 0.89 h, the “total protein half-life in vivo” value [10] was 12.9 ± 1.1 h and the “total protein half-life in vivo” value [11] was 6.34 ± 0.1 h. The “total protein half-life in vivo” value [12] was 11.8 ± 0.67 h.

With “MVTKKQSRVPGRPRRFAPEQAISAAKVLFHQKGFDAVSVAEVTDYLGINPPSLYAAFGSKAGLFSRVLNEYVGTEAIPLADILRDDRPVGECLVEVLKEAARRYSQNGGCAGCMVLEGIHSHDPQARDIAVQYYHAAETTIYDYIARRHPQRAQCVTDFMSTVMSGLSAKAREGHSIEQLCATAAMAGEAIKTILEE” the “total protein half-life in vivo” value [1] was 4.87 ± 0.78 h, the “total protein half-life in vivo” value [2] was 4.19 ± 0.7 h and the “total protein half-life in vivo” value [4] was 5.66 ± 2.6 h. The “total protein half-life in vivo” value [5] was 2.87 ± 0.24 h, the “total protein half-life in vivo” value [6] was 2.66 ± 0.17 h and the “total protein half-life in vivo” value [7] was 4.19 h. The “total protein half-life in vivo” value [8] was 4.59 ± 4.8 h, the “total protein half-life in vivo” value [9] was 3.48 ± 0.37 h and the “total protein half-life in vivo” value [10] was 6.59 ± 0.21 h. The “total protein half-life in vivo” value [12] was 6.26 h.

With “MVTLYGIKNCDTIKKARRWLEANNIDYRFHDYRVDGLDSELLNDFINELGWEALLNTRGTTWRKLDETTRNKITDAASAAALMTEMPAIIKRPLLCVPGKPMLLGFSDSSYQQFFHEV” the “total protein half-life in vivo” value [1] was 5.94 ± 0.23 h, the “total protein half-life in vivo” value [2] was 5.95 ± 0.25 h and the “total protein half-life in vivo” value [5] was 5.87 ± 1.3 h. For the same sequence, the “total protein half-life in vivo” value [6] was 3.07 ± 0.16 h, the “total protein half-life in vivo” value [7] was 6.1 ± 0.65 h and the “total protein half-life in vivo” value [8] was 9.79 ± 1.3 h. For the same sequence, the “total protein half-life in vivo” value [9] was greater than 8 h, the “total protein half-life in vivo” value [10] was 8.47 h and the “total protein half-life in vivo” value [11] was 6.07 h. For the same sequence, the “total protein half-life in vivo” value [12] was 11.3 ± 0.18 h.
